# Reference: patent US8530621B2, “Combined preparation of a thiazide diuretic and a loop diuretic” (The Regents of the University of California, priority 2007, dated 2013)
# Substitutions are numbered along the chain they refer to. Names and notes keep the numbering of the source.
# B1: L325R: HA-tagged mouse talin F23 (residues 206-405) mutant L325R expressed by transfection (protein, UniProt P26039 206-405, looked up, variant L325R)
# chain: SRDPVQLNLLYVQARDDILNGSHPVSFDKACEFAGFQCQIQFGPHNEQKHKAGFLDLKDFLPKEYVKQKGERKIFQAHKNCGQMSEIEAKVRYVKLARSLKTYGVSFFLVKEKMKGKNKRVPRLLGITKECVMRVDEKTKEVIQEWSLTNIKRWAASPKSFTLDFGDYQDGYYSVQTTEGEQIAQLIAGYIDIILKKKKS
# modifications: F2-F3 subdomains HA tag
# notes: HA-tagged mouse talin F23 (residues 206-405) mutant L325R expressed by transfection
# B2: S365D: HA-tagged mouse talin F23 (residues 206-405) mutant S365D expressed by transfection (protein, UniProt P26039 206-405, looked up, variant S365D)
# chain: B1 chain with R120L, S160D
# modifications: F2-F3 subdomains HA tag
# notes: HA-tagged mouse talin F23 (residues 206-405) mutant S365D expressed by transfection
# B3: wild type F23: F2 and F3 sub-domains (F23) of talin, residues 206-405, wild type (protein, UniProt P26039 206-405, looked up, fragment)
# chain: B1 chain with R120L
# modifications: F2-F3 subdomains
# notes: F2 and F3 sub-domains (F23) of talin, residues 206-405, wild type
# B4: F23(W359A): talin F23 mutant W359A that strongly inhibits the MD binding site (protein)
# chain: B1 chain with R120L, W154A
# modifications: left off: small tags and cut ends
# B5: Q381V: HA-tagged mouse talin F23 (residues 206-405) mutant Q381V expressed by transfection (protein, UniProt P26039 206-405, looked up, variant Q381V)
# chain: B1 chain with R120L, Q176V
# modifications: F2-F3 subdomains HA tag
# notes: HA-tagged mouse talin F23 (residues 206-405) mutant Q381V expressed by transfection
# B6: S379R: HA-tagged mouse talin F23 (residues 206-405) mutant S379R expressed by transfection (protein, UniProt P26039 206-405, looked up, variant S379R)
# chain: B1 chain with R120L, S174R
# modifications: F2-F3 subdomains HA tag
# notes: HA-tagged mouse talin F23 (residues 206-405) mutant S379R expressed by transfection
# B7: DOK1: PTB-containing protein, full-length DOK1, transfected into αβPy cells (protein)
# chain: MDGAVMEGPLFLQSQRFGTKRWRKTWAVLYPASPHGVARLEFFDHKGSSSGGGRGSSRRLDCKVIRLAECVSVAPVTVETPPEPGATAFRLDTAQRSHLLAADAPSSAAWVQTLCRNAFPKGSWTLAPTDNPPKLSALEMLENSLYSPTWEGSQFWVTVQRTEAAERCGLHGSYVLRVEAERLTLLTVGAQSQILEPLLSWPYTLLRRYGRDKVMFSFEAGRRCPSGPGTFTFQTAQGNDIFQAVETAIHRQKAQGKAGQGHDVLRADSHEGEVAEGKLPSPPGPQELLDSPPALYAEPLDSLRIAPCPSQDSLYSDPLDSTSAQAGEGVQRKKPLYWDLYEHAQQQLLKAKLTDPKEDPIYDEPEGLAPVPPQGLYDLPREPKDAWWCQARVKEEGYELPYNPATDDYAVPPPRSTKPLLAPKPQGPAFPEPGTATGSGIKSHNSALYSQVQKSGASGSWDCGLSRVGTDKTGVKSEGST
# Biological target: T1, integrin αIIbβ3 (Homo sapiens, UniProt P05106+P08514)
# T1 construct: expressed in transfected cells; host or cells: CHO (A5 cells)
# Test: PAC1 binding by flow cytometry in A5 cells transfected with talin F23
# Assay type: cell-based
# Conditions: CHO cells stably expressing WT human αIIbβ3 (A5 cells), transient transfection with HA-talin F23
# Source text: (§1) A-B. CHO cells were transiently transfected with plasmids encoding αIIb and β3, or mutants thereof. In some samples (indicated above) a plasmid encoding a shRNA for talin-1 (Tadokoro et. al. 2003) or a control shRNA was co-transfected with the integrin plasmids. Cells were double stained for integrin αIIbβ3 expression (B-D57) and activated αIIbβ3 (PAC1) and flow cytometry was used to measure the geometric mean fluorescence intensity (F) of PAC1 binding. Non-specific PAC1 binding (F0) was measured in the presence of a competitive antagonist of αIIbβ3, Ro43-5054 and maximal binding (Fmax) was measured in the presence of the activating antibody Anti-LIBS6. Activation index was defined as 100*(F−F0)/(Fmax−F0) (see Experimental Procedures). A. Activation of αIIb(R995A)β3 integrin was diminished in the cells co-transfected with talin-1 knockdown shRNA. Similarly, the β3(Y747A) mutation blocks talin binding to the MD site and the αIIb(R995A)β3(Y747A) integrin is not activated. B. Talin-mediated activation requires specific contacts between talin F3 and the β3 MP region. Depicted is the Activation Index (gray bars) or the αIIbβ3 expression, indicated as fluorescence intensity of D57 staining (black bars). The activating effect of αIIb(R995A) is diminished when it is paired with the β3 MP mutants β3(F727A) or β3(F730A). C-D. CHO cells stably expressing WT human αIIbβ3 (A5 cells), or a high-affinity chimeric integrin (αβPy cells), were transiently co-transfected with vectors for WT or mutant HA-tagged talin F23 and eGFP protein as a transfection marker. PAC1 binding was measured by flow cytometry in the subset of cells expressing GFP. Insets show representative western blots of cell lysates probed with anti-HA antibody and indicate that WT and mutant HA-talin F23 expressed to similar levels. C. Specific PAC1 binding in αIIbβ3-expressing A5 cells transfected with talin F23 mutants relative to that in cells transfected with wild type talinF23 (set as 100). […] D. PAC1 binding in αIIbα6β3β1-expressing αβPy cells transfected with talin F23 or its mutants relative to that in cells transfected with empty vector (set as 100). The MP-contacting talin F23 mutants (L325R, S365D, S379R, Q381V) inhibited activation, whereas the MD-contacting mutant talin F23(W359A) had no significant effect on activation levels. All data are an average of three of more measurements, error bars are standard deviations.
# Contacts between talin and the MP region of the β3 cytoplasmic tail may constitute an interaction that is a key to the activation process. To test this concept, the effects of a number of designed mutations, both in the β3 tail and in the talin F3 sub-domain, were investigated. Integrin activation was assessed using the antibody PAC1 and flow cytometry as previously described (Partridge et al., 2005).
# For experiments to assess the functional effect of point mutants in the β3 tail, CHO cells were co-transfected with pCDM8 plasmids coding for wildtype or mutant sequences of […] and β3. Transfection was done using the plus reagent and lipofectamine (Life Technologies); 24 hours later cells were stained with B-D57 and PAC1 in the presence and absence of Ro43-5054 or Anti-LIBS6. The biotinylated monoclonal antibody, B-D57 was used to detect expression of αIIbβ3, while PAC1, an activation specific, monoclonal IgM antibody was used to assess the activation state of the αIIbβ3 integrin. This antibody is an authentic ligand for integrin αIIbβ3 (Abrams et al., 1994) and its binding correlates with the binding of natural ligands, such as fibrinogen (Shattil et al., 1985). Cells were analyzed on a FACScan using both B-D57 and PAC1 antibodies as described previously (Partridge et al., 2005). The geometric mean fluorescence intensity (MFI) of PAC1 staining in the presence of Ro43-5054 (2 μM) was used to estimate non-specific PAC1 binding (F0). […]
row,Molecule,integrin αIIbβ3 activation (PAC1 binding)
1,B1,diminished the ability of F23 to activate integrin αIIbβ3
2,B2,diminished the ability of F23 to activate integrin αIIbβ3
3,B3,activated the integrin
4,B4,prevent activation
5,B5,diminished the ability of F23 to activate integrin αIIbβ3
6,B6,diminished the ability of F23 to activate integrin αIIbβ3

# Tested on: αIIbα6β3β1 high-affinity chimeric integrin (αβPy cells)
# Test: PAC1 binding by flow cytometry in αβPy cells transfected with talin F23 or DOK1
# Assay type: cell-based
# Conditions: talin-dependent constitutively active chimeric integrin, transient transfection
# Source text: as §1
# A. CHO cells stably expressing a high-affinity chimeric integrin (αβPy cells) were transiently co-transfected with empty vector (pCDNA3.1), WT talin F23 or full-length DOK1; eGFP protein was used as a transfection marker. The level of integrin activation was measured by flow cytometry of harvested cells using PAC1 antibody as described in the legend to FIG. 3. Data are an average of three or more measurements; error bars are standard deviations. B. Overlay of the DOK and talin PTB domains. The critical differences between the two domains are the residues between strands S1 and S2. C. Weighted shift map (see Experimental Procedures) obtained by observing ^1H-^15N HSQC spectra on addition of the β3/PIPKIα peptide to the DOK PTB domain (10:1 molar ratio). Grey columns indicate residues whose peaks experienced severe line broadening in the bound state and could not be assigned.
# To investigate this possibility we used αβPy cells, a CHO cell-line expressing a talin-dependent constitutively active chimeric integrin composed of the extracellular and transmembrane domains of αIIbβ3 and the cytoplasmic tails of α6β1 (Baker et al., 1997). We transiently transfected αβPy cells with cDNAs encoding the mutant F23 constructs (L325R, S365D, S379R, or Q381V).
# For experiments to assess the functional effect of point mutants in the β3 tail, CHO cells were co-transfected with pCDM8 plasmids coding for wildtype or mutant sequences of βIIb and β3. […]
row,Molecule,integrin activation (PAC1 binding)
1,B7,inhibited integrin activation
2,B1,blocked integrin activation
3,B2,blocked integrin activation
4,B3,modestly increased activation
5,B4,had no effect on activation
6,B5,blocked integrin activation
7,B6,blocked integrin activation
